Results: patent US20230287060, “PROTEINS AND THEIR USE FOR NUCLEOTIDE BINDING” (The University of Western Australia, published 2023)

Target: T1, cPPR-Telo1 (synthetic construct)
T1 chain: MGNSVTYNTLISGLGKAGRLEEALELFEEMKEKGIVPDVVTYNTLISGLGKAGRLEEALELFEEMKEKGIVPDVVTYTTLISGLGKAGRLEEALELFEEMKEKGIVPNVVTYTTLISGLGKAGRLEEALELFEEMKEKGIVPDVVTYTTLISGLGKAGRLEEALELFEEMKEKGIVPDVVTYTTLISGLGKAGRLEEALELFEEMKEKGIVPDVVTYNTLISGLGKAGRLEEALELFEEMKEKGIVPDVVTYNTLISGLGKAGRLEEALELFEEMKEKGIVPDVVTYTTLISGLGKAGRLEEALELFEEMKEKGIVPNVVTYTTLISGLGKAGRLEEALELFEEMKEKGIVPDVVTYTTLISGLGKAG
Assay: structure; co-crystal structure 2.0 A, PDB 5ORQ; protein/DNA 1:2; 100 mM sodium acetate pH 4.6, 20 mM CaCl2, 22% MPD
Details: tags: GST and His tags (pETM30, E. coli)
Experimental: Crystals of cPPR-Telo1 were grown at 23° C. by the sitting drop vapour diffusion method by mixing 1 μl protein (5 mg/ml) with an equal volume of reservoir solution (100 mM sodium acetate pH 4.6, 20 mM calcium chloride, and 40% MPD). In addition, cPPR-Telo1 was incubated with target ssDNA oligonucleotide (TTAGGGTTAG) at a protein/DNA molar ratio of 1:2 for 30 min at 4° C. and crystallized in 100 mM sodium acetate pH 4.6, 20 mM calcium chloride, and 22% MPD. For both cPPR-Telo1 and cPPR-Telo1/ssDNA a single-wavelength anomalous dispersion dataset was collected at the K-edge of selenium at beam line ID30A-3 (ESRF, Grenoble, France). […] Acta Crystallogr D Biol Crystallogr 66, 213-21 (2010) was used as a starting model for manual building in COOT (Emsley, P. & Cowtan, K. Coot: model-building tools for molecular graphics. Acta Crystallogr D Biol Crystallogr 60, 2126-32 (2004) interspersed with refinement in Buster (version 2.10.3) (Smart, O. S. et al. Exploiting structure similarity in refinement: automated NCS and target-structure restraints in BUSTER. Acta Crystallogr D Biol Crystallogr 68, 368-80 (2012), which rendered a final model (Table 1) that had no Ramachandran outliers as assessed by MOLPROBITY (Lovell, S. C. et al. Structure validation by Calpha geometry: phi,psi and Cbeta deviation. […]

B1: telomeric ssDNA target 10-mer (ssDNA)
DNA: TTAGGGTTAG
  binding result: binds
